Target: T1, GST-DSS1 (human, UniProt P60896 1-70)
T1 construct: DSS1, human; expressed from pGEX-KG; NMR numbering runs from M1 to three residues after M67; also called recombinant GST-DSS1 protein; source: E. coli BL21 (DE3), purified (Glutathione 4B-Sepharose, MonoQ); not shown: GST, N-terminal, kept
Test: pull-down; quantitative: GST-DSS1 4 uM on GST beads, increasing His6-RAD52, 20 mM Tris-acetate pH 7.5, 100 mM KCl, 0.01% NP40, 1 mM DTT, 1 h, 4°C; band intensities normalised to 6 uM His6-RAD52
Conditions: both partners purified

T1 sequence (P60896 whole entry): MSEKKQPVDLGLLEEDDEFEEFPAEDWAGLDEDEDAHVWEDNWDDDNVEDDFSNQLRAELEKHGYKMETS

B1: His6-RAD52 (natural protein, human, UniProt P43351 1-418, looked up)
chain: MSGTEEAILGGRDSHPAAGGGSVLCFGQCQYTAEEYQAIQKALRQRLGPEYISSRMAGGGQKVCYIEGHRVINLANEMFGYNGWAHSITQQNVDFVDLNNGKFYVGVCAFVRVQLKDGSYHEDVGYGVSEGLKSKALSLEKARKEAVTDGLKRALRSFGNALGNCILDKDYLRSLNKLPRQLPLEVDLTKAKRQDLEPSVEEARYNSCRPNMALGHPQLQQVTSPSRPSHAVIPADQDCSSRSLSSSAVESEATHQRKLRQKQLQQQFRERMEKQQVRVSTPSAEKSEAAPPAPPVTHSTPVTVSEPLLEKDFLAGVTQELIKTLEDNSEKWAVTPDAGDGVVKPSSRADPAQTSDTLALNNQMVTQNRTPHSVCHQKPQAKSGSWDLQTYSADQRTTGNWESHRKSQDMKKRKYDPS
notes: RAD52, human, with His6 tag; not shown: His6, N-terminal, kept
stoichiometry N: 1
